# Results taken from publication PMC5704897 (Molecular cell, 2006).
# Where two headings read alike, the source gives them in different places.
# T1: human Cdc37 (human), Q16543
# T1 chain: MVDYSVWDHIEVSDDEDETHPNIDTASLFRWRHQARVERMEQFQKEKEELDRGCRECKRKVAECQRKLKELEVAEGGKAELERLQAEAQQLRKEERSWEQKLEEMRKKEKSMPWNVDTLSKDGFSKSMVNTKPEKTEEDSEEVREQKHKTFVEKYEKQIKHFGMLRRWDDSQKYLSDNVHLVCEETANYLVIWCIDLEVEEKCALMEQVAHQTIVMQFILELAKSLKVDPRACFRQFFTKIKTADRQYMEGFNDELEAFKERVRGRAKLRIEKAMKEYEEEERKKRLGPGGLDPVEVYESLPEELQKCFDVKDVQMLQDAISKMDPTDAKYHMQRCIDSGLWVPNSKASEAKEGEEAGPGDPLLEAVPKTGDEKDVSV
# Tests used:
# Experiment in all cases: native MS
# human Cdc37 (human) [1] = target: human Cdc37 (human) (UniProt Q16543)
# [2] = target: His6-tagged kinase domain of B-Raf (human) (UniProt P15056)
# human Cdc37 (human) [3] = target: human Cdc37 (human) (UniProt Q16543); remark: listed apart in the source
# [4] = target: T1, human Cdc37 (human), Q16543; settings: remark: other sources report otherwise
# [5] = target: His6-tagged kinase domain of B-Raf (human, UniProt P15056 457-717)
# Chain of His6-tagged kinase domain of B-Raf (P15056 457-717): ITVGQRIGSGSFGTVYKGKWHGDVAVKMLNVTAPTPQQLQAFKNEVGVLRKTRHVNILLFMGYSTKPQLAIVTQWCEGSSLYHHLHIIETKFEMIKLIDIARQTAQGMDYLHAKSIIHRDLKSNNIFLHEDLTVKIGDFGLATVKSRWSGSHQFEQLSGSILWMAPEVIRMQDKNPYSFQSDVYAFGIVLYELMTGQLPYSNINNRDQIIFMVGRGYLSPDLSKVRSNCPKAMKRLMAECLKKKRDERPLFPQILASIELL
# Chain of His6-tagged kinase domain of B-Raf (human) (P15056 457-717): as above
molecule,measurement,setting,value
Spodoptera frugiperda Hsp90 homologue (natural protein),stoichiometry N (Hsp90 per Cdc37),human Cdc37 (human) [1],2
same,stoichiometry N (Hsp90 per B-Raf),[2],2
same,stoichiometry N (Hsp90 per Cdc37),human Cdc37 (human) [3],2
"human Cdc37, Q16543 1-378 (natural protein, here or on the partner: phosphoserine at 13 (pSer 13); phosphoserine at 13 (pSer 13)) MVDYSVWDHIEVSDDEDETHPNIDTASLFRWRHQARVERMEQFQKEKEELDRGCRECKRKVAECQRKLKELEVAEGGKAELERLQAEAQQLRKEERSWEQKLEEMRKKEKSMPWNVDTLSKDGFSKSMVNTKPEKTEEDSEEVREQKHKTFVEKYEKQIKHFGMLRRWDDSQKYLSDNVHLVCEETANYLVIWCIDLEVEEKCALMEQVAHQTIVMQFILELAKSLKVDPRACFRQFFTKIKTADRQYMEGFNDELEAFKERVRGRAKLRIEKAMKEYEEEERKKRLGPGGLDPVEVYESLPEELQKCFDVKDVQMLQDAISKMDPTDAKYHMQRCIDSGLWVPNSKASEAKEGEEAGPGDPLLEAVPKTGDEKDVSV",stoichiometry N (Cdc37 chains in the oligomer),[4],2
"human Cdc37 (natural protein, UniProt Q16543 1-378, looked up, phosphoserine at 13 (pSer 13)) MVDYSVWDHIEVSDDEDETHPNIDTASLFRWRHQARVERMEQFQKEKEELDRGCRECKRKVAECQRKLKELEVAEGGKAELERLQAEAQQLRKEERSWEQKLEEMRKKEKSMPWNVDTLSKDGFSKSMVNTKPEKTEEDSEEVREQKHKTFVEKYEKQIKHFGMLRRWDDSQKYLSDNVHLVCEETANYLVIWCIDLEVEEKCALMEQVAHQTIVMQFILELAKSLKVDPRACFRQFFTKIKTADRQYMEGFNDELEAFKERVRGRAKLRIEKAMKEYEEEERKKRLGPGGLDPVEVYESLPEELQKCFDVKDVQMLQDAISKMDPTDAKYHMQRCIDSGLWVPNSKASEAKEGEEAGPGDPLLEAVPKTGDEKDVSV",stoichiometry N,[5],1 Cdc37 per B-Raf
